Laboratory results from the nanobody polyreactivity screen of Harvey et al. (2022).

Experiment: yeast display, Sf9 membrane polyspecificity reagent, FACS + sequencing; frameworks hold sequencing errors
Outline: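 Galactose-induced (36–48 hours) yeast carrying a synthetic nanobody display library were exposed to 10% biotinylated, detergent-solubilized Sf9 membrane reagent at 4 °C for 1 hour. FACS followed streptavidin microbead enrichment, using low and high (top ~1%) gates for expression (anti-HA) and reagent binding (streptavidin). Colony PCR, MiSeq 2 × 250 sequencing and CDR-length filtering followed. Labels for polyreactivity reflect the gate of origin.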

Row | Sequence | polyreactivity (PSR sort gate)
1 | QVQLVESGGGLVQAGGSLRISCEAYGSIFGSYAMGWYRQEPGKERELVAGITYRGSSTYYADSVKGRYTISRDNAKNTVYLQMNSLKPEDTAVYYCAADPVFDEYDYWGQGTQVTVSW | low polyreactivity
2 | QVQLVESGGGLVQAGGSLRISCSASGGIFDPYAMGWYRQAPGKERELVAAITNSGGSTYYADSVKGRFTISRDNAKNTVYLQMNSLKPEDSAVYYCAAEGLYVGYDYWGHGTQVTVSS | low polyreactivity
3 | QVQLVESGGGLVQAGGSLRITCAASGSTFYRNAMGWYRQAPGKERELVAALSRGGSTYYADSVKGRFTISRDNAKNTVYLQMNSLKPEDSAVYYCAARYYSYQYGRHTRYQSVYWGQGTQVTVSS | high polyreactivity
4 | QVQLVESGGGLVQAGGSLRKSCAASGSTFVDYDMGWYRQAPGKERELVAGITTGGSTNYADSVKGRFPISRDNAKNTVYLQMNSLKPEDTAVYYCNADSYPILVPDYLYYWYEYWGQGTQVTVSS | low polyreactivity
5 | QVQLVESGGGLVQAGGSLRLAVLPPDLPSTLNDMGWYRQAPGKERELVAAITRGGSTNYADSVKGRFTISRDNAKNTVYLQMNSLKPEDTAVYDCAAPYAGWRDGGDYWGQGTQVTVSS | low polyreactivity
6 | QVQLVESGGGLVQAGGSLRLCCAASGFICGKYALGWYRQAAGNEWVLVAAITSDGRTYYADSVKGRFTISRDNPKNTVYVQMNSLKPEDTAVYYCAVDYYWYSYSGYDDYWGQGTQVTVSS | high polyreactivity
7 | QVQLVESGGGLVQAGGSLRLCCAASGFTFSWYAMGWYRQAPGKERELVAAISSSGGSTYYADSVKGRFTISRDNAKNTVYLQMYSLKPEDTAVYYCNAYRSASVVVGYDYWGQGTQVTVSS | high polyreactivity
8 | QVQLVESGGGLVQAGGSLRLCCAASGLTFAYYDMGWYRQAPGKERELVAAITSGGTTNYADSVKGRFTISRDNAKNTVYLQMNSLKPEDNAVYYCATDSWYGSWKYDYWGQGTQVTLSS | low polyreactivity
9 | QVQLVESGGGLVQAGGSLRLCCAASGLTFYPNAMGWYRQAPGKEREFVASISISGRTYYADSVKGRFTISRDNAKNTVYLQMNSLKPEDTAVYYCAARYVRSGLYRKYDYWGQGTQVTVSS | high polyreactivity
10 | QVQLVESGGGLVQAGGSLRLCCAASGRTFPYYAMGWYRQAPGKERELVAAISSSGGRTYYADSVKGRFTISRDNAKNTVYLQMNSLKPEDTAVYYCNVDAWYPYQGFLVGYYYWGQGTQVTVSS | low polyreactivity
11 | QVQLVESGGGLVQAGGSLRLCCAASGSTFADNAMGWYRQAPGTDGEFVAGISTNGGSTYYADSVKGRFRISRDNAKTTVDCQLNSLKPEDTAVYDSAAVNYYDQYGDYYWGQGTQVTVSS | low polyreactivity
12 | QVQLVESGGGLVQAGGSLRLCCAAYGFTFRINAMGWYRQAHGKERELVAYMSGRGGSTYYADSVQGRFTISRDNAMNTVYLQMNSLKPEDTAVYYCAATGSSSMSSYYLGQGTQVTVSS | high polyreactivity
13 | QVQLVESGGGLVQAGGSLRLGCAASGSTLYSYAMGWYRQAPGKERELVASISSGASTYYADSVKGRFTISRDNAKNTVYLQMNSLKPEDTAVYYCNADAGSYHTGWVTPWGSDEYDYWGQGTQVTVSS | low polyreactivity
14 | QVQLVESGGGLVQAGGSLRLICAAAGRTFWYNAMGWYRQAPGKERELVAVISSGAITYYADSVKGRFTISRDNAKNTVYLQMNSLKPEDTAVYYCAARSYLSLIDYWGQGTQVTVSS | high polyreactivity
15 | QVQLVESGGGLVQAGGSLRLICAACGYTFEHYAMGWYRQAPGKERELVAAITRSGGSTSYADSVKGRFTISRDNAKNTVFLQMNRVKPEDTAVYYCAADSIRYFDYDYWGQGPQVTVSS | low polyreactivity
16 | QVQLVESGGGLVQAGGSLRLICAASGFIFITNAMGWSRQAPGKERELVAAITSSDGNTYYADSVKGRFTISRDNAKNTVYLQMNSLKPEDTAVYYCADDARTKSYVRLYDYWGQGTQVTVSS | low polyreactivity
17 | QVQLVESGGGLVQAGGSLRLICAASGFIFSFNAMGWYRQAPGKERELVAAIRRSAGSTYYADSVKGRFTISRDNAKNTVYLQMNSLKPEDTAVYYCATVTRLYRHGYWGQGTQVTVSS | high polyreactivity
18 | QVQLVESGGGLVQAGGSLRLICAASGFIFSSYAMVWYRQAPGKERDLVAAISQTVGGTYYADSVKGRFTISRDNAKNTVYLQMNSLKPEDTAVYYCAADVYTASDRYWHDYWGQGTQVTVSS | low polyreactivity
19 | QVQLVESGGGLVQAGGSLRLICAASGFIFTLYAMGWYRQAPGTERELVAAISKTGGRTYYADSVKGRFTISRDNAKNTVYLQMNSLKPEDTAVYYCAKDVPSTYAAAYDYWGQGTQVTVSS | high polyreactivity
20 | QVQLVESGGGLVQAGGSLRLICAASGFIIYIYAMGWYRQAPGKERELVAAISRSGVGTYYADSVKGRFTISRDNAKNTVYLQMNSLKPEDTAVYYCARSRSGYRYDYWGQGTQVTVSS | high polyreactivity
21 | QVQLVESGGGLVQAGGSLRLICAASGFISVRNAMGWYRQGPGKERELGAAISSGDTTDYADSVKGSFTISRDNAKNTVYLQMNSLKPEDTAVYYCAAVYYGRYYYWGQGTQVTVSS | low polyreactivity
22 | QVQLVESGGGLVQAGGSLRLICAASGFTFASNAMGWYRQATGKERELVAAITTSGGSTYYADSVKGRFTISRDNAKNTVYLQMNSLKPEDTSVYYCADRATSRRPYSYGSWGQGTQVTVSS | high polyreactivity

Row | Sequence | polyreactivity (PSR sort gate)
23 | QVQLVESGGGLVQAGGSLRLICAASGFTFGEYAMGWYRQAPGKERDFVASISWDGASTYYADSVKGRFTISRDNAKNTVYLQMKSLKPEDTAVYYCAATRYYSFWGQGTQVTVSS | low polyreactivity
24 | QVQLVESGGGLVQAGGSLRLICAASGFTFGYYAMGWYRQAPRKERELVAAISYTGGSTYYADSVKGRFTISRDNAMNTVYLQMNSLKPEDTAVYYCNAYSALYGSYNYWGQGTQVTVSS | high polyreactivity
25 | QVQLVESGGGLVQAGGSLRLICAASGFTFSYYAMGWYRQAPGKESELVAGITTGGGTNYADSVKGRFTISRDNAKNTVYLQMNCLKPEDTAVYYCNAVGSHWVSYSSPVRFDFWGQGTQVTVSS | low polyreactivity
26 | QVQLVESGGGLVQAGGSLRLICAASGFTFYKNTMGWYRQAPGKERELVAAISSSGSSTYYADSVKGRFTISRDNAKNTVYLQMNSLKPEDTAVYYCAAGRFAYHDDYWGQGTQVTVSS | high polyreactivity
27 | QVQLVESGGGLVQAGGSLRLICAASGGIFWYNAMGWYRPAPGKERELVADISSSGITYYADSVKGRFTISRDNAKNTVYLQMNSLKPEDTAVYYCAADSTTRPGLRVYDDYDYWGQGTQLTVSS | low polyreactivity
28 | QVQLVESGGGLVQAGGSLRLICAASGGIFYSNARGWYRQAPGKERDFVAAITRSGTSTYYADSVKGRITISRDNAKNTVYLQMNSLKPVDTAVYYCAADYRYRRYRGHVSKLYYWGQGTQVTVSS | low polyreactivity
29 | QVQLVESGGGLVQAGGSLRLICAASGIIFGIYDMGWYRQAPGKERELVAAIRRSGGSTYYADSVKGRFTISRDNAKNTVYLQMNSLKPEDTAVYYCATDAWYYSQTNHDYWGQGTQVTVSS | low polyreactivity
30 | QVQLVESGGGLVQAGGSLRLICAASGIIFQAYTMGWSRQAPGKERELVAAISYSGGSTYYADSVKGRFTISSDNAKNSVYLEMKSLKPEDTAVYYCARRSRYLWRYDYWGQGTQVTVSA | high polyreactivity
31 | QVQLVESGGGLVQAGGSLRLICAASGIIFYYAMGWYRQAPGKEREFVASIRWSGDSTYYADSVKGRFTISRDNAKNTVYLQMNSLKPEDTAVYYCAAEPDSAVSYVSWRDYWGQGTQVTVSS | low polyreactivity
32 | QVQLVESGGGLVQAGGSLRLICAASGIILYSYAMGWYRQAPGKERELVAAISRRGTSTFYADSVKGRFTISRDNAKNTVYLQMNSLKPEDTAVYYCAADFYTNHYDYWGQGTQVTVSS | high polyreactivity
33 | QVQLVESGGGLVQAGGSLRLICAASGITFEVYAMGRYRLAPGKEMELVAVITSVGSTNYADSVKGRFTISRDNAKNTVYLQMNSLKPEDPAVYYCAALKWTVRRFNPYTYYRYDYWGQGTQVTVSS | low polyreactivity
34 | QVQLVESGGGLVQAGGSLRLICAASGITFPSNTMGWYRQAPGKERELVAAITRGDNTYYADSVKGRFTISRDNAKNTVYLQMNSLKPEYTAVYYCATEGYQIQYEHDYWGQGTIVTVSS | low polyreactivity
35 | QVQLVESGGGLVQAGGSLRLICAASGITFSAYAMGWYRQAPGKERELVAAITRSGGITYYADSVKGRFTISRDNAKNSVYLQMNSLKPEDTAVYYCNKPYASPYYDSWGQGTQVTVSS | high polyreactivity
36 | QVQLVESGGGLVQAGGSLRLICAASGITFTGYAMGWYTQAPGKERELVAVISETGGSTYADSVKGRFTISRDNAKNTVYLQMNSLKPEDTAVYYCAARLWWPYSTAWAKMDYWGQGTQVTVSS | low polyreactivity
37 | QVQLVESGGGLVQAGGSLRLICAASGITFVEYSMGWYRQAPGKERDLVAAISWSGVRTRYADSVKGRFTISRDNAKNTVYLQMNSLKPEDTAVYYCYTVPRGGGGVRILDYWGQGTQVTESS | high polyreactivity
38 | QVQLVESGGGLVQAGGSLRLICAASGITFVYYAMGWYRQAPGKERELVAAISTSGDSTYYADSVKGRFTISRDNAKNTVYLPMNSLKPEDTAVYYCAADADYYQYGWRVYYWGQGTQVTVSS | low polyreactivity
39 | QVQLVESGGGLVQAGGSLRLICAASGITFYAYPMGWYRQAPGKERELVAAITSSGSSTYYADSVKGRFTISLDNAKNTVYFQMNSLKPEDTAVFYCAATRGTKFYWGQGTQVTVSS | high polyreactivity
40 | QVQLVESGGGLVQAGGSLRLICAASGITTRTYAMGWYRQAPGKDRELVAAISDSGDRTYYADSVKGRFTISRDNAKNTVYLQMNRLKPEDTAVYYCAVDAPGPRCEFWGQGTKVTVSS | low polyreactivity
41 | QVQLVESGGGLVQAGGSLRLICAASGLIFGRYDMGWYRQAPGKERELVAAISGGTTNYADSVKGRFTISRDNAKNTVYLEMNSLKPEDTAVYYCNAGPSQPGGIFYEYDYWGQGTQVTVSS | low polyreactivity
42 | QVQLVESGGGLVQAGGSLRLICAASGLIFKFYAMGWYRQAPGKERELVASIRGSGDNTYYADSVKGRFTISRDNAKNTVYLQMNSLKPEDTAVYYCAADWLYDYGEYYYWGQGTQVTVSS | high polyreactivity
43 | QVQLVESGGGLVQAGGSLRLICAASGLIFRGYAKGWYRQAPGKERELVAAISKSGGSTYYADSVKGRFTISRDNAKNTVYLQMNSLKPEDTAVYYCNTDYVWKYFLSSQYDYWGQGTQVTVSS | high polyreactivity
